# Source: patent US20140087995A1 (published 2014)
# Read-outs that look alike come from different tables or passages of the source. Numbered stars: 1 amine (or outer) side, 2 acyl side, 3 side chain; on linkers, the order of the positions; unused ones are H or OH. Bridge positions count the residues as written; N and C are the ends. Side chains are listed from the residue outwards. Ends that are not written are not given here. * marks the point of attachment. C20 diacid = O=C(O)CCCCCCCCCCCCCCCCCCC(=O)*; γGlu = O=C(O)[C@H](CCC(=O)[*:2])N[*:1]; AEEA = NCCOCCOCC(=O)O
# T1: human amylin receptor (amylin 3(a) receptor: human calcitonin receptor co-expressed with RAMP-3) (human, UniProt P30988 25-474; O60896 24-148, limits assumed)
# T1 sequence (looked up) 1: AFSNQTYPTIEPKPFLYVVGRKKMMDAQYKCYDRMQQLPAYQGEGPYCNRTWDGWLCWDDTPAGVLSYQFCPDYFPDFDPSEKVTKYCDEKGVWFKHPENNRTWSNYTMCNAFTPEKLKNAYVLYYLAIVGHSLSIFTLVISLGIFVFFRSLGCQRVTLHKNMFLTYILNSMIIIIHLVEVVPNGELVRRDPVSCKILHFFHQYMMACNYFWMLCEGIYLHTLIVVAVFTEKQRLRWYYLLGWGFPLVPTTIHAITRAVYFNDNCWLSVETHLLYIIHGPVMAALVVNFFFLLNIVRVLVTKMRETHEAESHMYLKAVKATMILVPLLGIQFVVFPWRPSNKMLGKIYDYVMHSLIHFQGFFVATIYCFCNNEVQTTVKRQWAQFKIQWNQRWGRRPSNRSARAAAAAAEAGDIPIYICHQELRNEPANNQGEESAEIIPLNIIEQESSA
# T1 sequence (looked up) 2: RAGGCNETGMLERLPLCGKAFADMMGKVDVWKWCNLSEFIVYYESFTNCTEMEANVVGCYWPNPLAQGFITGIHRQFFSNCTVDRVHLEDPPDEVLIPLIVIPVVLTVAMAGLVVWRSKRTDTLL
# T2: human calcitonin receptor (human, UniProt P30988 25-474)
# T2 sequence (looked up): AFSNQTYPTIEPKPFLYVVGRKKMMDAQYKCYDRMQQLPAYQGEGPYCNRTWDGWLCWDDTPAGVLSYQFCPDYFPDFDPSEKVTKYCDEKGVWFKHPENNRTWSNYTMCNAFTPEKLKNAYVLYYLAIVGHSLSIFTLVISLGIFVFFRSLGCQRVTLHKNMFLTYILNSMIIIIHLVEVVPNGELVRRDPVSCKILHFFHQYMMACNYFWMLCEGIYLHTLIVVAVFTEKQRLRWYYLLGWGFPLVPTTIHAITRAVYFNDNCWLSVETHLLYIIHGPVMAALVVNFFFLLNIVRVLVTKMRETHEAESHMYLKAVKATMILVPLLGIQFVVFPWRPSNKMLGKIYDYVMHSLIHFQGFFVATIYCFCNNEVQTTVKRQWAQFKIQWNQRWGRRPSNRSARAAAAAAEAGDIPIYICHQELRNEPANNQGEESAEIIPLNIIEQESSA
# T3: human amylin 3(a) receptor (human calcitonin receptor plus RAMP-3) (human, UniProt P30988 25-474; O60896 24-148, limits assumed)
# T3 sequence (looked up) 1: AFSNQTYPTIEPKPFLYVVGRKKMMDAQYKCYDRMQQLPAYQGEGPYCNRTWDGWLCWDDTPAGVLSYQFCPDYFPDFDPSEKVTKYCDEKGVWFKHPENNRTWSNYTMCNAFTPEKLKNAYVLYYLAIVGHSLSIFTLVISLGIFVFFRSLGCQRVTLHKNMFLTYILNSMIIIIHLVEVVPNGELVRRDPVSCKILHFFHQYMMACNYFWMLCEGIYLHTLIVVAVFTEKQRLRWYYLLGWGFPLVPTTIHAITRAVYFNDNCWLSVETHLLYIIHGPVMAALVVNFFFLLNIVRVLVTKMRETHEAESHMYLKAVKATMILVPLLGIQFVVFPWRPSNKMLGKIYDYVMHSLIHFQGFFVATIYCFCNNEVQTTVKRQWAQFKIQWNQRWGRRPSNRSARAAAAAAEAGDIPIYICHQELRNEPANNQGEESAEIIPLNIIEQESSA
# T3 sequence (looked up) 2: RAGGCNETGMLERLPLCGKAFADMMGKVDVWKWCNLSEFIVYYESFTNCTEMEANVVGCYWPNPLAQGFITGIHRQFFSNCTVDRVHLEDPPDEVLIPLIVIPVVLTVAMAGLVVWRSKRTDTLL
# T4: human calcitonin receptor (human, UniProt P30988 25-474)
# T4 sequence (looked up): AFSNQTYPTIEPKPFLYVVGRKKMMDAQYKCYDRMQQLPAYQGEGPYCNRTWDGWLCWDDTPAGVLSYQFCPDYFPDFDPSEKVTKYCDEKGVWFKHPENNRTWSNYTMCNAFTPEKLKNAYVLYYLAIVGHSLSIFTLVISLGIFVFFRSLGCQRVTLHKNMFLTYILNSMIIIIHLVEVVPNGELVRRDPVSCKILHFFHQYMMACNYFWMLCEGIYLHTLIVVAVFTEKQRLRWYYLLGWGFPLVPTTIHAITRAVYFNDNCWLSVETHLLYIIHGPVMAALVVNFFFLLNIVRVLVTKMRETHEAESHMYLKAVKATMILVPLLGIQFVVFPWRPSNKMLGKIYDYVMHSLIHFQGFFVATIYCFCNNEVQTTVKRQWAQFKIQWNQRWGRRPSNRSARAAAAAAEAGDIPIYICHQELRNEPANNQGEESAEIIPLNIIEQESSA
# B1: N^ε-[2-[2-[2-[[(4S)-4-carboxy-4-(19-carboxynonadecanoylamino)butanoyl]amino]ethoxy]ethoxy]acetyl]Lys[Arg1,Arg17,Pro21,Pro27,His35]-h-amylin (peptide)
# peptide: K([AEEA-γGlu-C20 diacid])RCNTATCATQRLANFLRHSSPNFGAIPSSTNVGSHTY-NH2
# modifications: disulfide 3-8; N-terminus assumed
# SMILES: CC[C@H](C)[C@H](NC(=O)[C@H](C)NC(=O)CNC(=O)[C@H](Cc1ccccc1)NC(=O)[C@H](CC(N)=O)NC(=O)[C@@H]1CCCN1C(=O)[C@H](CO)NC(=O)[C@H](CO)NC(=O)[C@H](Cc1c[nH]cn1)NC(=O)[C@H](CCCNC(=N)N)NC(=O)[C@H](CC(C)C)NC(=O)[C@H](Cc1ccccc1)NC(=O)[C@H](CC(N)=O)NC(=O)[C@H](C)NC(=O)[C@H](CC(C)C)NC(=O)[C@H](CCCNC(=N)N)NC(=O)[C@H](CCC(N)=O)NC(=O)[C@@H](NC(=O)[C@H](C)NC(=O)[C@@H]1CSSC[C@H](NC(=O)[C@H](CCCNC(=N)N)NC(=O)[C@@H](N)CCCCNC(=O)COCCOCCNC(=O)CC[C@H](NC(=O)CCCCCCCCCCCCCCCCCCC(=O)O)C(=O)O)C(=O)N[C@@H](CC(N)=O)C(=O)N[C@@H]([C@@H](C)O)C(=O)N[C@@H](C)C(=O)N[C@@H]([C@@H](C)O)C(=O)N1)[C@@H](C)O)C(=O)N1CCC[C@H]1C(=O)N[C@@H](CO)C(=O)N[C@@H](CO)C(=O)N[C@H](C(=O)N[C@@H](CC(N)=O)C(=O)N[C@H](C(=O)NCC(=O)N[C@@H](CO)C(=O)N[C@@H](Cc1c[nH]cn1)C(=O)N[C@H](C(=O)N[C@@H](Cc1ccc(O)cc1)C(N)=O)[C@@H](C)O)C(C)C)[C@@H](C)O
# notes: 38 residues: N-terminal extension by Lys (-1K); also called compound 45
# B2: N^α1-[(4S)-4-carboxy-4-(19-carboxynonadecanoylamino)butanoyl]-[Glu14,Arg17,Pro21,Pro27]-h-amylin (peptide)
# peptide: KCNTATCATQRLAEFLRHSSPNFGAIPSSTNVGSNTY
# modifications: C20 diacid-gGlu on the alpha amino group of the N-terminal residue (position 1); disulfide bridge Cys2-Cys7; C-terminal amide
# notes: also called compound 9
# Columns and labels:
# [1] = target: T1, human amylin receptor (amylin 3(a) …); assay: cell-based or functional assay
# [2] = target: T2, human calcitonin receptor; assay: cell-based or functional assay
# [3] = target: T3, human amylin 3(a) receptor (human …); assay: cell-based or functional assay
# [4] = target: T4, human calcitonin receptor; assay: cell-based or functional assay; remark: listed apart in the source
# [5] = target: T3, human amylin 3(a) receptor (human …); assay: SPA competition binding, displacement of 125I-rat amylin from membranes of Amylin 3(a)/CRE-luc BHK cells (Assay V)
# Method: The binding assay was performed using scintillation proximity assay (SPA) beads (RPNQ0001) from PerkinElmer and cell membranes from the Amylin 3(a)/CRE-luc cells (as described in Assay (II)) were used. Membranes were prepared in the following way; the cells were rinsed with PBS and incubated with Versene for approximately 5 min before harvesting. The cells were flushed with PBS and the cell-suspension was centrifuged for 5 min at 1000 rpm. Cells were homogenized (ultrathurrax) in a buffer containing 20 mM Na-HEPES and 10 mM EDTA (pH 7.4) and centrifuged at 20.000 rpm for 15 min. The resulting pellet was resuspended, homogenized and centrifuged (20.000 rpm, 15 min) in a buffer containing 20 mM Na-HEPES and 0.1 mM EDTA (pH 7.4, buffer 2). The resulting pellet was resuspended in buffer 2 and protein concentration was measured (BCA protein Assay, Pierce). The homogenate was kept cold during the whole procedure. The membranes were kept at −80° C. until use. The assay was performed in a 384 well Optiplate (PerkinElmer) in a total volume of 40 ul. Membranes were mixed with SPA beads. Final concentration of membranes 35 ng/μL final and SPA beads was 0.05 mg/well. Test-compounds were dissolved in DMSO and further diluted in assay buffer (50 mM Hepes, pH 7.4, 1 mM CaCl2, 5 mM MgCl₂, 0.1% OA and 0.02% Tween20). […] The final mixture was incubated with shaking at 400 rpm for 120 min at 25° C. prior to centrifugation (1500 rpm, 10 min). Samples were analyzed on TopCounter™ (Packard). The IC₅₀ was calculated using (one site binding competition analysis) GraphPad Prism5 as a measure of receptor affinity.
binder,measurement,setting,value
B1,hAmylin-R funct. EC50,[1],0.594 nM
same,Ratio hCT/hAmylin funct. (hCTR EC50 against hAmylin-R EC50),[2],17
same,hCTR funct. EC50,[2],10.1 nM
B2,Ratio hCT/hAmylin funct.,[3],7.4
same,hAmylin-R funct. EC50,[3],0.175 nM
same,hCTR funct. EC50,[4],1.29 nM
same,IC50,[5],0.143 nM
